Biological target: human recombinant FVIII (Advate) (human, UniProt P00451 20-2351)
Assay: ELISA

Sequence of human recombinant FVIII (Advate) (P00451 20-2351): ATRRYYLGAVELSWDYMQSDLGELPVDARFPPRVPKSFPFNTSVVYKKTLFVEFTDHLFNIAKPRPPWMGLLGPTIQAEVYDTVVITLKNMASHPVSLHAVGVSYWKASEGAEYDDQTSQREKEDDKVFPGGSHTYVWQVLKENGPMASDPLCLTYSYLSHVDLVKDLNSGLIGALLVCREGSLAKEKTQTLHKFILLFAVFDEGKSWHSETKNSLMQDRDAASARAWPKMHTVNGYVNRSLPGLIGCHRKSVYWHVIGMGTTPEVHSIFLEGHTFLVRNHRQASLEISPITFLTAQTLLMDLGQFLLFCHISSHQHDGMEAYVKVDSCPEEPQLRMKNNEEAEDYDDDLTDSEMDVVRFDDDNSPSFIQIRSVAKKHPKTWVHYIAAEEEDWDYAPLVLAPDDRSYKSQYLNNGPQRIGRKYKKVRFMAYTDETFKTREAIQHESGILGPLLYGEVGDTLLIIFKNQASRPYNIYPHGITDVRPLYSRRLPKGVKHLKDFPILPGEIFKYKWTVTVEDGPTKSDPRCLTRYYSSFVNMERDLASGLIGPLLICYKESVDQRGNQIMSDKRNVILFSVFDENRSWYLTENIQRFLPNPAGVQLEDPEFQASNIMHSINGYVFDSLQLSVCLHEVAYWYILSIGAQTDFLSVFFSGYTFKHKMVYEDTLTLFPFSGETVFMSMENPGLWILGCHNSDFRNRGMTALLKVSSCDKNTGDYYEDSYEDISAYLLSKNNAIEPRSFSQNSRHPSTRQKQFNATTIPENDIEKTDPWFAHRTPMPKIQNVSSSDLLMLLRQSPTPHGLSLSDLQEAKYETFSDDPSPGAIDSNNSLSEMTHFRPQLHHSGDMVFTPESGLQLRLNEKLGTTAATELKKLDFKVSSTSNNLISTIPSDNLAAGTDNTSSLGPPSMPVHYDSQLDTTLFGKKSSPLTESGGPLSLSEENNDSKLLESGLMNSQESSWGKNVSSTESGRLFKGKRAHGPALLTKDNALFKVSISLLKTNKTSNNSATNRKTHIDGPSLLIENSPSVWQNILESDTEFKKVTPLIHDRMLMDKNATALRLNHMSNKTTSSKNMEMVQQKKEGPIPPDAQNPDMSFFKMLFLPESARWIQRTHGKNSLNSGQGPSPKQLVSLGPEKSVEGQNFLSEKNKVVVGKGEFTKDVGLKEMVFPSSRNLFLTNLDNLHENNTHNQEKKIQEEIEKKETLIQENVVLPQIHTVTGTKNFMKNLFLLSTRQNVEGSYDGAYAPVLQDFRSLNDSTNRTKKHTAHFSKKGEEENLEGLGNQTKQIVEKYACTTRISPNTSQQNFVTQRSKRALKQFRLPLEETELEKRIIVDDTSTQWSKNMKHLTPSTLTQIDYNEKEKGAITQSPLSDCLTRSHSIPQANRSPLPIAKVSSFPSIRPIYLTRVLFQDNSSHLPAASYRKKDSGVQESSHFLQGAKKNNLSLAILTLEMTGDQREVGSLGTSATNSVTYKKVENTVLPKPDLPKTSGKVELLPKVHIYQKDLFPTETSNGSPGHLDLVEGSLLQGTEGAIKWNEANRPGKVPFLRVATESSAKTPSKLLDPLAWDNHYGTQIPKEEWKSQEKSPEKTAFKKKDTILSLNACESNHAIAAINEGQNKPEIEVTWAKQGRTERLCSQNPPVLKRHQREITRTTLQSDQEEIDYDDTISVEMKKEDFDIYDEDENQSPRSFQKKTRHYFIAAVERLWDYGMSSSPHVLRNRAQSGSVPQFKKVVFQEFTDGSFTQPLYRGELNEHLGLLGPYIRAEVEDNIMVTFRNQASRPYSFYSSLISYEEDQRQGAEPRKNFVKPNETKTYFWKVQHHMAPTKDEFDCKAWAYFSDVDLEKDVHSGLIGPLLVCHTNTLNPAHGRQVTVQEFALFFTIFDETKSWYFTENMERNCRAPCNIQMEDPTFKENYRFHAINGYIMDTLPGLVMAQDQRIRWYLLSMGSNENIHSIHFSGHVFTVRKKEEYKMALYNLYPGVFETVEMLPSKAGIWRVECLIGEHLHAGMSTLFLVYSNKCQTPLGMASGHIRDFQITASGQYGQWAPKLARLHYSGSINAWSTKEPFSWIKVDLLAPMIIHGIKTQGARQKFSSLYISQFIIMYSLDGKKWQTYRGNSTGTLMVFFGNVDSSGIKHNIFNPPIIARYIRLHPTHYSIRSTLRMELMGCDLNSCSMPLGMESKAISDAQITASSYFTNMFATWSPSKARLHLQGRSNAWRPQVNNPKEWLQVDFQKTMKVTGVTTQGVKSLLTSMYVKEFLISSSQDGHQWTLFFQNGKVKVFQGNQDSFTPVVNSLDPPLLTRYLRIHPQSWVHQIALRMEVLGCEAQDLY

B1: recombinant CLEC4M-Fc chimera (Fc fusion, human, UniProt Q9H2X3 71-399, looked up)
chain: QVSKVPSSLSQEQSEQDAIYQNLTQLKAAVGELSEKSKLQEIYQELTQLKAAVGELPEKSKLQEIYQELTRLKAAVGELPEKSKLQEIYQELTRLKAAVGELPEKSKLQEIYQELTRLKAAVGELPEKSKLQEIYQELTELKAAVGELPEKSKLQEIYQELTQLKAAVGELPDQSKQQQIYQELTDLKTAFERLCRHCPKDWTFFQGNCYFMSNSQRNWHDSVTACQEVRAQLVVIKTAEEQNFLQLQTSRSNRFSWMGLSDLNQEGTWQWVDGSPLSPSFQRYWNSGEPNNSGNEDCAEFSGSGWNDNRCDVDNYWICKKPAACFRDE
Q: With B1 as the binder, how does the Kd read?
A: Its Kd is < 0.1 nM.

Reference: article PMC7083068 (Journal of thrombosis and haemostasis : JTH, 2019)
